The values that follow come from paper PMC6005192.

The target in this assay is bacteriophage λ holin S105, allele S105τ94 (internal G2H6G2 tag) (bacteriophage λ). Briefly: cryo-EM structure.

Take “bacteriophage λ holin S105, allele S105τ94 (internal G2H6G2 tag) (natural protein)”: the stoichiometry N (usually a count of units in the complex or per binding partner) was 72.
